Laboratory results reported in article doi:10.1101/2020.03.16.993006 (bioRxiv, 2020).
Like-named read-outs stand apart in the source and are kept apart here. One block for each binder: values may come before it.

What was measured:
[1] = target: human ferroportin (FPN), wild type, reconstituted in lipid nanodisc (human, UniProt Q9NP59); assay: cryo-EM structure
[2] = target: Rhodamine green-hepcidin (human); assay: fluorescence polarisation
[3] = target: Rhodamine green-hepcidin (human); assay: fluorescence polarisation; remark: listed apart in the source
[4] = target: Rhodamine green-hepcidin (human); assay: fluorescence polarisation; remark: listed apart in the source
[5] = target: Rhodamine green-hepcidin (human); assay: fluorescence polarisation; remark: listed apart in the source

binding result [1]: binds
B1: Fab45D8 (Fab, V domains shown)
VH: EVQLQESGPGLAKPSQTLSLTCSVTGSSITSDYWNWIRKFPGNKLEYMGYISYSGSTYYNPSLKSQISITRDTSKNHYYLQLNSVTTEDTATYYCARQGLRNWYFDVWGTGTTVTVSS
VL: DIVLTQSPASLPVSLGQRATISCRASKSVSASAYSYMHWYQQKPGQPPKPLIYLASNLESGVPARFSGSGSGTDFTLNIHPVEEEDAATYYCQHNRELPYTFGGGTKLEIK

Kd [2]: 2.5 nM
Kd [3]: 210 nM
Kd [4]: 7.8 nM
Kd [5]: 7.7 nM
B2: human ferroportin (FPN), wild type, reconstituted in lipid nanodisc (natural protein)
chain: MTRAGDHNRQRGCCGSLADYLTSAKFLLYLGHSLSTWGDRMWHFAVSVFLVELYGNSLLLTAVYGLVVAGSVLVLGAIIGDWVDKNARLKVAQTSLVVQNVSVILCGIILMMVFLHKHELLTMYHGWVLTSCYILIITIANIANLASTATAITIQRDWIVVVAGEDRSKLANMNATIRRIDQLTNILAPMAVGQIMTFGSPVIGCGFISGWNLVSMCVEYVLLWKVYQKTPALAVKAGLKEEETELKQLNLHKDTEPKPLEGTHLMGVKDSNIHELEHEQEPTCASQMAEPFRTFRDGWVSYYNQPVFLAGMGLAFLYMTVLGFDCITTGYAYTQGLSGSILSILMGASAITGIMGTVAFTWLRRKCGLVRTGLISGLAQLSCLILCVISVFMPGSPLDLSVSPFEDIRSRFIQGESITPTKIPEITTEIYMSNGSNSANIVPETSPESVPIISVSLLFAGVIAARIGLWSFDLTVTQLLQENVIESERGIINGVQNSMNYLLDLLHFIMVILAPNPEAFGLLVLISVSFVAMGHIMYFRFAQNTLGNKLFACGPDAKEVRKENQANTSVV
